Assay results from PMC5099578, “A structural and functional study on the 2-C-methyl-D-erythritol-4-phosphate cytidyltransferase (IspD) from Bacillus subtilis” (Scientific Reports, 2016).

Target: the molecule itself
Assay: crystal structure; apo form I, space group P2_(1)2_(1)2_(1), crystallization condition I, hanging drop at 18 °C; two molecules in the asymmetric unit; 1.80 Å

B1: 2-C-methyl-D-erythritol-4-phosphate cytidyltransferase (IspD) from Bacillus subtilis (enzyme, Bacillus subtilis 168)
chain: MSYDVVIPAAGQGKRMKAGRNKLFIELKGDPVIIHTLRVFDSHRQCDKIILVINEQEREHFQQLLSDYPFQTSIELVAGGDERQHSVYKGLKAVKQEKIVLVHDGARPFIKHEQIDELIAEAEQTGAAILAVPVKDTIKRVQDLQVSETIERSSLWAVQTPQAFRLSLLMKAHAEAERKGFLGTDDASLVEQMEGGSVRVVEGSYTNIKLTTPDDLTSAEAIMESESGNKHV
notes: IspD of Bacillus subtilis 168 (DSM 23778); the IspD gene amplified from genomic DNA as a 699 bp product; 232 residues built in apo form I (residues numbered up to 232); 699 bp fits 232 codons and a stop codon, so probably the whole gene; Cloned BamHI/XhoI in pGEX-6P-1; GST removed by PreScission protease, so a few vector residues may be left at the N-terminus (surmised); also called BsIspD; …
- stoichiometry N: 2
